Columns and labels:
[1] = molecular target: T1, CD96 (UniProt P40200 22-585, limits assumed); test: flow cytometry on cells expressing CD96
T1 construct: whole, on cells
T1 sequence (looked up): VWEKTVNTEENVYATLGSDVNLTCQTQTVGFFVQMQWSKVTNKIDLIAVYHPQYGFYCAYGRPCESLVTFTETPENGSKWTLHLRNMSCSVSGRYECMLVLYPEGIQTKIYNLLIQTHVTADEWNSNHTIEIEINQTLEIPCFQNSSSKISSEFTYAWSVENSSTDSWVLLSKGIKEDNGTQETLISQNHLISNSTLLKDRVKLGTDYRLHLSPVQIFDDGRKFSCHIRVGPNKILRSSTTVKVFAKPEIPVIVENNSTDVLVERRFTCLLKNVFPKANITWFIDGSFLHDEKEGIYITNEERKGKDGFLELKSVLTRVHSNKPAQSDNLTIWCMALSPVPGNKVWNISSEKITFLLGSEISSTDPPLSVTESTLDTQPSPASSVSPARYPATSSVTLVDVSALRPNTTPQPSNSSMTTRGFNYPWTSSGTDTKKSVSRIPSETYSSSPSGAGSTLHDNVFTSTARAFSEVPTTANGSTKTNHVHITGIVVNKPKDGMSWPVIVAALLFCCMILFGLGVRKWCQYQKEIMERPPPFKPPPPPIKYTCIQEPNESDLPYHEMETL

[2] = molecular target: T2, human PD-L1, expressed on cells (human, UniProt Q9NZQ7 19-290); test: flow cytometry on CHO/PD-L1 cells, then fluorescently conjugated PD-1-Fc (FIG. 9D)
T2 construct: On CHO/PD-L1, K562/OKT3/PD-L1 and CHO/OKT3/PD-L1 aAPC, huPD-L1-transduced MC38 cells, or primary human monocytes; also called huPD-L1; hPD-L1

[3] = molecular target: T3, PD-1-Fc (UniProt Q15116 25-167); test: ForteBio (BLI), PD-1-Fc
T3 construct: not shown: Fc not described

[4] = molecular target: T4, human PD-L1, full-length, on transduced CHO cells (human, UniProt Q9NZQ7 19-290); test: flow cytometry MFI on CHO/huPD-L1 relative to WT CD80 ECD-Fc (R&D)
T4 construct: Full-length surface expression construct transduced into CHO cells by lentivirus; also called huPD-L1; CD274

[5] = molecular target: T4, human PD-L1, full-length, on transduced …; test: flow cytometry; binding to CHO/huPD-L1 compared to binding to Jurkat (CD28)
[6] = molecular target: T5, human CD28, endogenous on Jurkat/IL2 reporter cells (human, UniProt P10747 19-220); test: flow cytometry MFI on Jurkat (CD28) relative to WT CD80 ECD-Fc (R&D)
T5 construct: Endogenously expressed on Jurkat/IL2 reporter cells

[7] = molecular target: T6, human CTLA-4, full-length, on transduced CHO cells (human, UniProt P16410 36-223); test: flow cytometry MFI on CHO/huCTLA4 relative to WT CD80 ECD-Fc (R&D)
T6 construct: Full-length surface expression construct transduced into CHO cells by lentivirus; also called huCTLA4
T6 sequence (P16410 36-223): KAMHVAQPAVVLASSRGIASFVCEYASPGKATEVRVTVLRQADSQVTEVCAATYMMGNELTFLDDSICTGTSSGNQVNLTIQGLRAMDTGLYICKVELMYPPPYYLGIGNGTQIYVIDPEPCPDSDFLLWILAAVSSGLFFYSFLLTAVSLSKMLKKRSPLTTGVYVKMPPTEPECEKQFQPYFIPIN

T4 sequence (Q9NZQ7 19-290): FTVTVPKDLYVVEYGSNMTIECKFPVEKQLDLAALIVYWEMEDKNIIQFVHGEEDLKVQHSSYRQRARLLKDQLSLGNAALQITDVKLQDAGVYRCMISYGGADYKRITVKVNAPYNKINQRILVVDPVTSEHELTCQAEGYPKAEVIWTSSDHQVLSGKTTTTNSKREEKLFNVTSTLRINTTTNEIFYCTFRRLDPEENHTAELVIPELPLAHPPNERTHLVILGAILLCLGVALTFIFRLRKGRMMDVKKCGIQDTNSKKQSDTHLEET
T2 sequence (Q9NZQ7 19-290): as above
T3 sequence (Q15116 25-167): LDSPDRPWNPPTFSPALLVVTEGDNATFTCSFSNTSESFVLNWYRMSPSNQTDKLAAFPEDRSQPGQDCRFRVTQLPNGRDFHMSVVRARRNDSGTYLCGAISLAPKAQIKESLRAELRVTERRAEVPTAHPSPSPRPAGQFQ

B1: CD112 Y33H/N47K/Q79R/N106Y/A112V IgV-Fc (Fc fusion, not shown: a dimerising Fc or GST)
chain: QDVRVQVLPEVRGQLGGTVELPCHLLPPVPGLHISLVTWQRPDAPAKHQNVAAFHPKMGPSFPSPKPGSERLSFVSAKRSTGQDTEAELQDATLALHGLTVEDEGYYTCEFVTFPKGSVRGMTWLRV
[1]
  MFI at 100 nM: 1680 MFI

B2: CD80 variant H18Y/V22A/E35D/M47V/T62S/A71G IgV (SEQ ID NO: 2275)-Fc (inert) (Fc fusion, not shown: small tags and cut ends)
chain: VIHVTKEVKEVATLSCGYNVSAEELAQTRIYWQKDKKMVLTMMSGDVNIWPEYKNRTIFDISNNLSIVILGLRPSDEGTYECVVLKYEKDAFKREHLAEVTLSVKADEPKSSDKTHTCPPCPAPEAEGAPSVFLFPPKPKDTLMISRTPEVTCVVVDVSHEDPEVKFNWYVDGVEVHNAKTKPREEQYNSTYRVVSVLTVLHQDWLNGKEYKCKVSNKALPAPIEKTISKAKGQPREPQVYTLPPSREEMTKNQVSLTCLVKGFYPSDIAVEWESNGQPENNYKTTPPVLDSDGSFFLYSKLTVDKSRWQQGNVFSCSVMHEALHNHYTQKSLSLSPG
notes: also called H18Y/V22A/E35D/M47V/T62S/A71G CD80 IgV-Fc; CD80 vIgD-Fc
[2]
  binding result: binds

B3: PD-L2 V89D IgV-Fc (Fc fusion, not shown: a dimerising Fc or GST)
chain: LFTVTVPKELYIIEHGSNVTLECNFDTGSHVNLGAITASLQKVENDTSPHRERATLLEEQLPLGKASFHIPQVQVRDEGQYQCIIIYGDAWDYKYLTLKVKA
[3]
  Response Units: 0.005 Response Units

B4: variant CD80 IgV-Fc E35D/M47V/A71G (Fc fusion, not shown: a dimerising Fc or GST)
chain: VIHVTKEVKEVATLSCGHNVSVEELAQTRIYWQKDKKMVLTMMSGDVNIWPEYKNRTIFDITNNLSIVILGLRPSDEGTYECVVLKYEKDAFKREHLAEVTLSVKAD
[4]
  Fold change to WT CD80: 3.05 fold
[5]
  Ratio of PDL1:CD28: 6 ratio
[6]
  Fold change to WT CD80: 0.35 fold
[7]
  Fold change to WT CD80: 1.44 fold
